This is an account of results in PMC314469, “Protein Interaction Networks by Proteome Peptide Scanning” (PLoS Biology, 2004).

Assay [1] concerns the target T1, amphyphisin SH3 (AMPH_HUMAN), P49418.
T1 chain: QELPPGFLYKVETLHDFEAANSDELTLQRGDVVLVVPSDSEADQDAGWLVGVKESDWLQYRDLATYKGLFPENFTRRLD
As to the kind of experiment: SPOT array.

Assay [2] concerns the target endophilin SH3 (SH3G2_HUMAN), Q99962. As to the kind of experiment: SPOT array.

B1: Q14296 184-198 (peptide)
chain: RLRLPPKPPPPLQP
For the molecule B1, the normalised SPOT signal, Boehringer light units (BLU); mean over the file's lines of this peptide in assay [1] is 896; in assay [2], 6030.

B2: O94839 5-18 (peptide)
chain: AVAVPRRPRAGAER
Turning to B2, the normalised SPOT signal, Boehringer light units (BLU); mean over the file's lines of this peptide in assay [1] worked out at 106; in assay [2], 256.

B3: O00407 179-192 (peptide)
chain: RLNWLGRPSKVLSL
Regarding B3, the normalised SPOT signal, Boehringer light units (BLU); mean over the file's lines of this peptide amounted to 213 in assay [1] and 270 in assay [2].

B4: Q96SQ5 2-15 (peptide)
chain: AAAVPRRPTQQGTV
Consider B4, for which the normalised SPOT signal, Boehringer light units (BLU); mean over the file's lines of this peptide was 38.9 in assay [1] and 182 in assay [2].

B5: Q9UJS3 337-350 (peptide)
chain: RLLPPQRPGKSQRV
Regarding B5, the results for the normalised SPOT signal, Boehringer light units (BLU); mean over the file's lines of this peptide in assay [1] and in assay [2] were 2730 and 25000, respectively.

B6: O94938 456-469 (peptide)
chain: RMLVPGRPVKDATP
As to B6, the normalised SPOT signal, Boehringer light units (BLU); mean over the file's lines of this peptide in assay [1] stood at 352; in assay [2] it was 2930.

B7: Q9BW08 289-303 (peptide)
chain: RKPKPERPPSSSSS
On to B7, for which the results for the normalised SPOT signal, Boehringer light units (BLU); mean over the file's lines of this peptide in assay [1] and in assay [2] were 66.8 and 7630, respectively.

B8: P58180 122-135 (peptide)
chain: RLIAISRPLRYVTV
Turning to B8, the normalised SPOT signal, Boehringer light units (BLU); mean over the file's lines of this peptide in assay [1] was 4460; in assay [2], 658.

B9: O75467 160-174 (peptide)
chain: RLTSPLRPPEGVRL
As for B9, the values for the normalised SPOT signal, Boehringer light units (BLU); mean over the file's lines of this peptide in assay [1] and in assay [2] were 235 and 1040, respectively.

B10: Q13547 49-62 (peptide)
chain: RKMEIYRPHKANAE
B10: the normalised SPOT signal, Boehringer light units (BLU); mean over the file's lines of this peptide in assay [1] was determined as 90.1; in assay [2] it was 78.7.

B11: Q01650 421-434 (peptide)
chain: RKPELERPIKVNLA
As for B11, the normalised SPOT signal, Boehringer light units (BLU); mean over the file's lines of this peptide in assay [1] was 103; in assay [2] it was 123.

B12: Q9H1C0 128-141 (peptide)
chain: RLRHLRRPRVARLL
Take B12: the normalised SPOT signal, Boehringer light units (BLU); mean over the file's lines of this peptide in assay [1] is 15.2; in assay [2], 24.3.

B13: Q07075 143-156 (peptide)
chain: RLPELKRPSGDQVQ
With B13, the normalised SPOT signal, Boehringer light units (BLU); mean over the file's lines of this peptide in assay [1] is 37.2; in assay [2], 34.9.

B14: P58012 147-161 (peptide)
chain: RMKRPFRPPPAHFQ
B14: the normalised SPOT signal, Boehringer light units (BLU); mean over the file's lines of this peptide was 554 in assay [1] and 5130 in assay [2].

B15: P55001 106-119 (peptide)
chain: RLYSIHRPSKQSLN
As for B15, the normalised SPOT signal, Boehringer light units (BLU); mean over the file's lines of this peptide in assay [1] came to 37.2; in assay [2], 290.

B16: Q9NRN8 254-267 (peptide)
chain: RKWYPLRPKKINLD
Consider B16, for which the normalised SPOT signal, Boehringer light units (BLU); mean over the file's lines of this peptide in assay [1] amounted to 177; in assay [2], 204.

B17: O15350 435-448 (peptide)
chain: ATPLPRRPQPRQFF
With B17, the normalised SPOT signal, Boehringer light units (BLU); mean over the file's lines of this peptide in assay [1] came out at 151; in assay [2], 19900.

B18: Q99759 56-69 (peptide)
chain: RIIAFSRPVKYEDV
In the case of B18, the normalised SPOT signal, Boehringer light units (BLU); mean over the file's lines of this peptide came to 113 in assay [1] and 79.6 in assay [2].

B19: Q9H7T3 112-125 (peptide)
chain: RHPRPRRPGGPALR
Turning to B19, the normalised SPOT signal, Boehringer light units (BLU); mean over the file's lines of this peptide in assay [1] was 92.1; in assay [2], 266.

B20: Q9NWH6 590-603 (peptide)
chain: RHWRPWRPDKTKKQ
Regarding B20, the normalised SPOT signal, Boehringer light units (BLU); mean over the file's lines of this peptide in assay [1] was 580; in assay [2], 568.

B21: Q9Y2U5 55-68 (peptide)
chain: RILQFPRPVKLEDL
For the molecule B21, the figures for the normalised SPOT signal, Boehringer light units (BLU); mean over the file's lines of this peptide in assay [1] and in assay [2] were 108 and 119, respectively.

B22: Q9NTH0 93-106 (peptide)
chain: RHLAPNRPSKSRTD
For the molecule B22, the values for the normalised SPOT signal, Boehringer light units (BLU); mean over the file's lines of this peptide in assay [1] and in assay [2] were 530 and 257, respectively.

B23: Q9UL53 87-100 (peptide)
chain: RLFSIVRPRRLLYM
In the case of B23, the results for the normalised SPOT signal, Boehringer light units (BLU); mean over the file's lines of this peptide in assay [1] and in assay [2] were 1390 and 702, respectively.

B24: AAH27972 515-529 (peptide)
chain: AVAPPARPPRPPYP
With B24, the normalised SPOT signal, Boehringer light units (BLU); mean over the file's lines of this peptide in assay [1] turned out to be 4180; in assay [2], 9580.

B25: P51659 480-494 (peptide)
chain: AVAIPNRPPDAVLT
As to B25, the values for the normalised SPOT signal, Boehringer light units (BLU); mean over the file's lines of this peptide in assay [1] and in assay [2] were 49.8 and 79.1, respectively.

B26: Q9BXL7 634-647 (peptide)
chain: RKFSLERPFRPSVT
For B26, the normalised SPOT signal, Boehringer light units (BLU); mean over the file's lines of this peptide in assay [1] was 797; in assay [2] it was 105.

B27: O15235 37-51 (peptide)
chain: RLGPPKRPPRKLGP
With B27, the normalised SPOT signal, Boehringer light units (BLU); mean over the file's lines of this peptide amounted to 17100 in assay [1] and 10500 in assay [2].

B28: Q96M18 45-58 (peptide)
chain: RLIAPRRPWTLSHV
Regarding B28, the normalised SPOT signal, Boehringer light units (BLU); mean over the file's lines of this peptide in assay [1] turned out to be 1130; in assay [2] it was 2240.

B29: P41215 45-59 (peptide)
chain: RHPKPLKPPWHLSM
On to B29, for which the normalised SPOT signal, Boehringer light units (BLU); mean over the file's lines of this peptide in assay [1] stood at 76.6; in assay [2] it was 3220.

B30: Q96JB4 119-132 (peptide)
chain: RHLILKRPGFQEHE
B30: the normalised SPOT signal, Boehringer light units (BLU); mean over the file's lines of this peptide in assay [1] came to 67.7; in assay [2], 128.

B31: Q92657 54-67 (peptide)
chain: RHQRLHRPGRPVPG
Turning to B31, the normalised SPOT signal, Boehringer light units (BLU); mean over the file's lines of this peptide is 11.8 in assay [1] and 64.3 in assay [2].

B32: Q9NRC6 2111-2124 (peptide)
chain: RLKTLRRPRVRDRL
Turning to B32, the normalised SPOT signal, Boehringer light units (BLU); mean over the file's lines of this peptide in assay [1] came out at 35.2; in assay [2], 32.1.

B33: Q96JG1 528-542 (peptide)
chain: RHASPARPPAARSQ
Regarding B33, the normalised SPOT signal, Boehringer light units (BLU); mean over the file's lines of this peptide in assay [1] worked out at 434; in assay [2], 4680.

B34: Q92769 50-63 (peptide)
chain: RKMEIYRPHKATAE
Regarding B34, the normalised SPOT signal, Boehringer light units (BLU); mean over the file's lines of this peptide in assay [1] is 16.3; in assay [2] it was 179.

B35: Q9NT23 226-239 (peptide)
chain: RLHRLRRPHSSSDA
Take B35: the normalised SPOT signal, Boehringer light units (BLU); mean over the file's lines of this peptide stood at 12.5 in assay [1] and 9.6 in assay [2].

B36: P31629 1496-1509 (peptide)
chain: RHLSPRRPVSPGKD
For B36, the figures for the normalised SPOT signal, Boehringer light units (BLU); mean over the file's lines of this peptide in assay [1] and in assay [2] were 60.1 and 332, respectively.

B37: Q9BQU6 64-78 (peptide)
chain: RLAGPPRPPGHPRE
Consider B37, for which the values for the normalised SPOT signal, Boehringer light units (BLU); mean over the file's lines of this peptide in assay [1] and in assay [2] were 162 and 2700, respectively.

B38: Q9UFC0 277-290 (peptide)
chain: RLAALKRPDDVPLS
For B38, the values for the normalised SPOT signal, Boehringer light units (BLU); mean over the file's lines of this peptide in assay [1] and in assay [2] were 38 and 49.2, respectively.
